{
  "source": "patent CN112279916A",
  "about": "(DINGFU BIOTARGET CO LTD, dated 2021)",
  "target": "T1, hIL13RA1-EGFP (细胞表面hIL13RA1, HEK293细胞) (human, UniProt P78552 22-427)",
  "T1 construct": "also called 人IL13RA1; not shown: enhanced green fluorescent protein EGFP, UniProt C5MKY7",
  "T1 sequence (looked up)": "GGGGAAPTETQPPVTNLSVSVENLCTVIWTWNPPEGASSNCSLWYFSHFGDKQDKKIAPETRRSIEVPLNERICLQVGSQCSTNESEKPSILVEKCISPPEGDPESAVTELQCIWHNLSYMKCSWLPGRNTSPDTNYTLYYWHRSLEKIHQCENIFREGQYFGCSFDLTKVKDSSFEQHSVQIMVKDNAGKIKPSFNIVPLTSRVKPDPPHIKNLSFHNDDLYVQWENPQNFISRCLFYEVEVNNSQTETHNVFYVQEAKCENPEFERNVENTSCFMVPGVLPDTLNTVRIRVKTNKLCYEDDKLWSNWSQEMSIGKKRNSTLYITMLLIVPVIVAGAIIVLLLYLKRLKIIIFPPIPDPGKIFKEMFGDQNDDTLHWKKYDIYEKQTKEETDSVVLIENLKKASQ",
  "assay": "FACS on hIL13RA1-EGFP HEK293 cells, 2 μg antibody, secondary antibody anti-hIg-PE",
  "data": [
    {"binder": "anti-hIL13RA1 scFv抗体 (Fc fusion, also called anti-IL13RA1 35#; IL13RA1抗体; not shown: human IgG1-Fc domain, UniProt P01857 residues 104-330) scFv: QVQLQQSGPGLVKPSQTLLITCAISGDSVSSNSAAWNWIRQSPSGSLEWLGRTYYRSKWYSHYAVSVTGRMTINSDSSKNQFSLQLDSVTPEDMAIYYCAREEVAGRGSFDFWGQGTLVTVSSGILGSGGGGSGGGGSGGGGSDIQLTQSPSFLSASVGDRVTITCRASQSISKNLVWYQQKPGKAPKLLIYSASTLQSGVPSRFSGSGSGTDFTLTISSLQPEDCALYFCQQAHSFPVTFGQGTRLEIK", "values": [
      {"measurement": "binding result", "result": "binds"}
    ]}
  ]
}
